PMC11245101
Where “and” joins values, the source holds several entries; their conditions need not be identical. Equal entries are not always repeated. Each block holds one substance with its values, some of them ahead of it.

Legend:
Test in all cases: AUC
[1] = target: TDP-43 CTD S→E S273C, disulfide cross-linked dimer (human)
[2] = target: TDP-43 CTD S→E S305C, disulfide cross-linked dimer (human)
[3] = target: TDP-43 CTD S→E S317C, disulfide cross-linked dimer (human)

fraction of tetramer [1]: < 1%
Substance: TDP-43 CTD S→E S273C, disulfide cross-linked dimer (domain or fragment)

Kd dimer-tetramer [2]: 58 µM
Kd tetramer-octamer [2]: 4.7 µM
stoichiometry N [2]: 4 and 8
Substance: TDP-43 CTD S→E S305C, disulfide cross-linked dimer (domain or fragment)

Kd [3]: 46 µM
stoichiometry N [3]: 4
Substance: TDP-43 CTD S→E S317C, disulfide cross-linked dimer (domain or fragment)
